Results reported in the supplement of paper PMC11316812.
± gives the standard deviation of the averaged measurements.

Assays:
hTERT-HMEC = test: percentage of EdU-negative (G0-arrested) nuclei per well, 72 h; higher = more G0 arrest; conditions: reference: sequence is the full UniProt precursor, the tested protein was the secreted form or ectodomain
MCF7 = test: as above; conditions: reference: sequence is the full UniProt precursor, the tested protein was the secreted form or ectodomain
[1] = protein concentration 0.01725 µM
[2] = protein concentration 0.1725 µM
[3] = protein concentration 0.0135 µM
[4] = protein concentration 0.0251975 µM
[5] = protein concentration 0.251975 µM
[6] = protein concentration 0.01475 µM
[7] = protein concentration 0.1475 µM
[8] = protein concentration 0.0225 µM
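Further: secreted proteins added to cultured cells, EdU pulse at the end, nuclei found by Hoechst imaging, EdU status from nuclear versus surrounding ring intensity ratio, PBS as neutral control.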

Sequence: MESRVLLRTFCLIFGLGAVWGLGVDPSLQIDVLTELELGESTTGVRQVPGLHNGTKAFLFQDTPRSIKASTATAEQFFQKLRNKHEFTILVTLKQTHLNSGVILSIHHLDHRYLELESSGHRNEVRLHYRSGSHRPHTEVFPYILADDKWHKLSLAISASHLILHIDCNKIYERVVEKPSTDLPLGTTFWLGQRNNAHGYFKGIMQDVQLLVMPQGFIAQCPDLNRTCPTCNDFHGLVQKIMELQDILAKTSAKLSRAEQRMNRLDQCYCERTCTMKGTTYREFESWIDGCKNCTCLNGTIQCETLICPNPDCPLKSALAYVDGKCCKECKSICQFQGRTYFEGERNTVYSSSGVCVLYECKDQTMKLVESSGCPALDCPESHQITLSHSCCKVCKGYDFCSERHNCMENSICRNLNDRAVCSCRDGFRALREDNAYCEDIDECAEGRHYCRENTMCVNTPGSFMCICKTGYIRIDDYSCTEHDECITNQHNCDENALCFNTVGGHNCVCKPGYTGNGTTCKAFCKDGCRNGGACIAANVCACPQGFTGPSCETDIDECSDGFVQCDSRANCINLPGWYHCECRDGYHDNGMFSPSGESCEDIDECGTGRHSCANDTICFNLDGGYDCRCPHGKNCTGDCIHDGKVKHNGQIWVLENDRCSVCSCQNGFVMCRRMVCDCENPTVDLFCCPECDPRLSSQCLHQNGETLYNSGDTWVQNCQQCRCLQGEVDCWPLPCPDVECEFSILPENECCPRCVTDPCQADTIRNDITKTCLDEMNVVRFTGSSWIKHGTECTLCQCKNGHICCSVDPQCLQEL
- percentage of EdU-negative (hTERT-HMEC; [1]): 5.41 ± 0.14%
- percentage of EdU-negative (hTERT-HMEC; [2]): 12.7 ± 0.33%
- percentage of EdU-negative (MCF7; [1]): 24.4 ± 2.6%
- percentage of EdU-negative (MCF7; [2]): 28.9 ± 0.7%

Sequence: MSSEEGKLFVGGLNFNTDEQALEDHFSSFGPISEVVVVKDRETQRSRGFGFITFTNPEHASVAMRAMNGESLDGRQIRVDHAGKSARGTRGGGFGAHGRGRSYSRGGGDQGYGSGRYYDSRPGGYGYGYGRSRDYNGRNQGGYDRYSGGNYRDNYDN
- percentage of EdU-negative (hTERT-HMEC; [3]): 5 ± 0.36%
- percentage of EdU-negative (hTERT-HMEC; protein concentration 0.135 µM): 8.05 ± 0.55%
- percentage of EdU-negative (MCF7; [3]): 25.1 ± 3.6%
- percentage of EdU-negative (MCF7; protein concentration 0.135 µM): 27 ± 1.7%

Sequence: MAPLKMLALVTLLLGASLQHIHAARGTNVGRECCLEYFKGAIPLRKLKTWYQTSEDCSRDAIVFVTVQGRAICSDPNNKRVKNAVKYLQSLERS
- percentage of EdU-negative (hTERT-HMEC; [4]): 5.05 ± 1.6%
- percentage of EdU-negative (hTERT-HMEC; [5]): 5.85 ± 0.93%
- percentage of EdU-negative (MCF7; [4]): 26 ± 0.51%
- percentage of EdU-negative (MCF7; [5]): 25.9 ± 0.28%

Sequence: MRLHLLLLLALCGAGTTAAELSYSLRGNWSICNGNGSLELPGAVPGCVHSALFQQGLIQDSYYRFNDLNYRWVSLDNWTYSKEFKIPFEISKWQKVNLILEGVDTVSKILFNEVTIGETDNMFNRYSFDITNVVRDVNSIELRFQSAVLYAAQQSKAHTRYQVPPDCPPLVQKGECHVNFVRKEQCSFSWDWGPSFPTQGIWKDVRIEAYNICHLNYFTFSPIYDKSAQEWNLEIESTFDVVSSKPVGGQVIVAIPKLQTQQTYSIELQPGKRIVELFVNISKNITVETWWPHGHGNQTGYNMTVLFELDGGLNIEKSAKVYFRTVELIEEPIKGSPGLSFYFKINGFPIFLKGSNWIPADSFQDRVTSELLRLLLQSVVDANMNTLRVWGGGIYEQDEFYELCDELGIMVWQDFMFACALYPTDQGFLDSVTAEVAYQIKRLKSHPSIIIWSGNNENEEALMMNWYHISFTDRPIYIKDYVTLYVKNIRELVLAGDKSRPFITSSPTNGAETVAEAWVSQNPNSNYFGDVHFYDYISDCWNWKVFPKARFASEYGYQSWPSFSTLEKVSSTEDWSFNSKFSLHRQHHEGGNKQMLYQAGLHFKLPQSTDPLRTFKDTIYLTQVMQAQCVKTETEFYRRSRSEIVDQQGHTMGALYWQLNDIWQAPSWASLEYGGKWKMLHYFAQNFFAPLLPVGFENENTFYIYGVSDLHSDYSMTLSVRVHTWSSLEPVCSRVTERFVMKGGEAVCLYEEPVSELLRRCGNCTRESCVVSFYLSADHELLSPTNYHFLSSPKEAVGLCKAQITAIISQQGDIFVFDLETSAVAPFVWLDVGSIPGRFSDNGFLMTEKTRTILFYPWEPTSKNELEQSFHVTSLTDIY
- percentage of EdU-negative (hTERT-HMEC; [6]): 5.29 ± 0.2%
- percentage of EdU-negative (hTERT-HMEC; [7]): 5.9 ± 0.22%
- percentage of EdU-negative (MCF7; [6]): 25.3 ± 0.54%
- percentage of EdU-negative (MCF7; [7]): 28.1 ± 0.47%

Sequence: MALSWVLTVLSLLPLLEAQIPLCANLVPVPITNATLDRITGKWFYIASAFRNEEYNKSVQEIQATFFYFTPNKTEDTIFLREYQTRQNQCFYNSSYLNVQRENGTVSRYEGGREHVAHLLFLRDTKTLMFGSYLDDEKNWGLSFYADKPETTKEQLGEFYEALDCLCIPRSDVMYTDWKKDKCEPLEKQHEKERKQEEGES
- percentage of EdU-negative (hTERT-HMEC; [8]): 4.9 ± 0.092%
- percentage of EdU-negative (hTERT-HMEC; protein concentration 0.225 µM): 5.06 ± 0.15%
- percentage of EdU-negative (MCF7; [8]): 25.4 ± 2.9%
- percentage of EdU-negative (MCF7; protein concentration 0.225 µM): 25.1 ± 3.5%

Sequence: MDSSREPTLGRLDAAGFWQVWQRFDADEKGYIEEKELDAFFLHMLMKLGTDDTVMKANLHKVKQQFMTTQDASKDGRIRMKELAGMFLSEDENFLLLFRRENPLDSSVEFMQIWRKYDADSSGFISAAELRNFLRDLFLHHKKAISEAKLEEYTGTMMKIFDRNKDGRLDLNDLARILALQENFLLQFKMDACSTEERKRDFEKIFAYYDVSKTGALEGPEVDGFVKDMMELVQPSISGVDLDKFREILLRHCDVNKDGKIQKSELALCLGLKINP
- percentage of EdU-negative (hTERT-HMEC; [8]): 4.77 ± 0.84%
- percentage of EdU-negative (hTERT-HMEC; protein concentration 0.225 µM): 5.6 ± 0.67%
- percentage of EdU-negative (MCF7; [8]): 40.5 ± 16%
- percentage of EdU-negative (MCF7; protein concentration 0.225 µM): 25.7 ± 0.85%
